“Also recorded” adds a separate entry of the source.

Results on 1 molecule are retold here after US20040038338A1, “Influence of LRP cytoplasmic domain on Abeta production” (priority 2001, published 2004).

One experiment has as its system APP processing. The experiment is described as follows: Restoration of APP processing in LRP deficient cells (summary statements). Format: cell-based. The note with it: construct expressed in LRP deficient cells.
Experiment [1] deals with Aβ secretion. The experiment in a line: Aβ secretion, transient expression of LRP-CT in N2A mouse neuroblastoma cells. Format: cell-based.
A further experiment concerns the target T1, APP (Homo sapiens, UniProt P05067).
T1 construct: expressed in transfected cells
The experiment is described as follows: APP and LRP co-immunoprecipitation. As to conditions: transfected cells. Format: binding.

For the next experiment, the system named is Aβ. The experiment is described as follows: Aβ ELISA of medium from LRP−/− fibroblasts expressing LRP-CT. The note with it: LRP-CT expressed in LRP−/− cells transfected with APP751; 72 hour collection; compared to LRP± cells. Format: cell-based, mouse. On the procedure: Media from LRP−/−, LRP± LRP−/−CT fibroblasts was collected after an incubation period of 72 hours in serum free IS-CHO medium. Debris was removed by centrifugation (13,000 rpm for 20 min) and the supernatants were subjected to Aβ40 quantification using a standard sandwich ELISA described previously (Kang et al., 2000).

The subject of experiment [2] is Aβ secretion. The experiment is described as follows: Aβ secretion, transient expression of LRP-CT in human glioma cells. Format: cell-based.
Another experiment concerns APP-CTF. The experiment in a line: APP-CTF levels by immunoblotting (CT15) after expression of LRP-CT constructs in LRP−/− fibroblasts. Format: cell-based, mouse. As to conditions: construct expressed in LRP−/− fibroblasts expressing APP751; compared to LRP± control cells. On the procedure: (§1) Mouse fibroblasts deficient in LRP (LRP−/−; PEA 13) and corresponding LRP expressing control cells (LRP±; PEA 10) were obtained from American Type Culture Collection (Rockville, Md., USA) and cultured as described previously (Kang et al., 2000). LRP deficient CHO cell line (13-5-1), CHO cell line expressing a LRP trafficking mutant (14-2-1), and corresponding CHO K1 control cells (kind gift of Dr. S. Leppla) were grown in alpha DMEM supplemented with 10% fetal bovine serum (FitzGerald et al., 1995). Human APP695 and APP751 were inserted into the pBabepuro retroviral expression vector (Morgenstern and Land, 1990) and transferred into GP+E86 packaging cell line. Stable transformants were selected with puromycin (5 μg/ml). After infection with recombinant viruses, mouse fibroblasts were selected with puromycin (2.5 μg/ml)and analyzed after clonal selection for equal APP expression. […] After infection with recombinant viruses, LRP−/− mouse fibroblasts were selected with hygromycin (2.5 μg/ml) and analyzed (LRP−/−CT). […]
(§2) For detection of intracellular proteins, cell extracts were prepared using an NP40 lysis buffer. […] Western blotting was carried out with the indicated antibodies and detected by enhanced chemiluminescence (Pierce). Quantitation of the chemiluminescence signal was carried out with a CCD camera imaging system (GeneGnome, Syngene, Frederick, Md.).

In another experiment the test system is APP internalization. The experiment is described as follows: Internalization of cell surface APP by iodinated 1G7 antibody at 37° C. Format: cell-based, mouse. As to conditions: LRP-CT expressed in APP751 expressing LRP−/− cells; 30 min at 37° C.; compared to LRP± cells. As to the method: To measure internalization of cell surface APP, iodinated 1G7 antibody was added to confluent cultures of LRP±, LRP−/−, or LRP−/−CT fibroblasts stably transfected with APP695 or APP751 at 37° C. for 30 min. After incubation, cells were rapidly chilled on ice, and the reaction was quenched by the addition of ice-cold binding medium. Chilled cells were extensively washed and remaining surface antibody was detached by two acid washes. The cells were then lysed and collected for analysis. Acid-labile and acid-resistant radioactivity represents the surface and internalized pools of APP, respectively. Specific binding was determined after subtraction of the radioactive counts obtained from parallel cultures of untransfected LRP± and LRP−/− fibroblasts. The ratio of acid-resistant to acid-labile counts therefore provided a measure of the internalized versus cell surface pools of APP. All experiments in this study were repeated one to three times. […]
RESULTS: An APP internalization assay was performed in LRP-deficient cells expressing either APP695 or APP751 using a protocol established in Inventors' laboratory in which iodinated APP monoclonal antibody (1G7) was added to cultured cells at 37° C. for 30 minutes [Koo E H and Squazzo S L. J. Biol. Chem. 269:17386-17389, 1994]. Internalized and cell surface APP can be rapidly determined by the acid resistant and acid labile pools, respectively. […]

A further experiment concerns APPs. The experiment in a line: APPs in medium by immunoprecipitation-western blotting, LRP−/− fibroblasts expressing LRP-CT constructs. Format: cell-based, mouse. The note with it: construct expressed in LRP−/− fibroblasts expressing APP751; compared to LRP± control cells. On the procedure:
as §1, §2

In a further experiment the test system is cell surface APP. The experiment is described as follows: Cell surface APP by iodinated 1G7 antibody at 4° C. The note with it: LRP-CT expressed in LRP−/− cells expressing APP751. Format: cell-based, mouse. As to the method:
To measure APP surface expression or internalization of surface APP, iodinated 1G7 monoclonal antibody was added to the cells in triplicate exactly as described previously (Koo et al., 1996). For the measurement of cell surface APP, the iodinated antibody was added to APP transfected LRP± and LRP−/− fibroblasts at 4° C. for 30 min followed by extensive washes. Specific binding was calculated after subtraction of the radioactivity obtained from parallel cultures of untransfected LRP± and LRP−/− fibroblasts, respectively. The radioactivity was then normalized to the rate of production of APP, which was determined in parallel cultures. The latter cells were metabolically labeled as described before and immunoprecipitated with polyclonal APP antibody to the C-terminus (CT15). Immunoprecipitates were subjected to SDS-PAGE, gels were dried and the APP signal was quantified by phosphor imaging.

Experiment [3] deals with APP processing in CHO 13-5-1 cells. The experiment is described as follows: Transient expression of LRP-CT constructs in LRP deficient CHO 13-5-1 cells, APP-CTF and APPs by immunoblotting. Format: cell-based. The note with it: LRP−/− CHO 13-5-1 cells; compared to control levels. As to the method:
as §1, §2

For experiment [4], the system named is Aβ secretion. The experiment is described as follows: Aβ secretion from APP751-expressing CHO cells transfected with LRP-CT. Format: cell-based. The note with it: LRP-CT overexpressed in APP751-expressing CHO cells (LRP +/+).

B1: LRP-CT: last 370 amino acids of the LRP β-subunit, transmembrane domain and entire cytoplasmic region, with signal peptide (protein)
chain: KRLDNGTCVPVPSPTPPPDAPRPGTCNLQCFNGGSCFLNARRQPKCRCQPRYTGDKCELDQCWEHCRNGGTCAASPSGMPTCRCPTGFTGPKCTQQVCAGYCANNSTCTVNQGNQPQCRCLPGFLGDRCQYRQCSGYCENFGTCQMAADGSRQCRCTAYFEGSRCEVNKCSRCLEGACVVNKQSGDVTCNCTDGRVAPSCLTCVGHCSNGGSCTMNSKMMPECQCPPHMTGPRCEEHVFSQQQPGHIASILIPLLLLLLLVLVAGVVFWYKRRVQGAKGFQHQRMTNGAMNVEIGNPTYKMYEGGEPDDVGGLLDADFALDPDKPTNFTNPVYATLYMGGHGSRHSLASTDEKRELLGRGPEDEIGDPLA
As for B1, in the experiment on APP processing, the “APP processing steps altered in the absence of LRP” value is “can be restored; also recorded: partial to full restoration”. The Aβ secretion result in the experiment on Aβ secretion [1] was “likewise reduced Aβ secretion”; in the experiment with Aβ secretion [2] it was “likewise reduced Aβ secretion”; with Aβ secretion [4], “inhibited Aβ secretion; also recorded: dramatically inhibited; also recorded: reduce Aβ secretion in proportion to level of expression”. In addition, in the experiment with APP, the “co-immunoprecipitation with APP” value is recorded as “can not only co-IP APP with LRP, but also with LRP-CT; also recorded: APP complexes with LRP-CT”. The “Aβ level in medium” value in the experiment on Aβ is on record as “restored to control level present in LRP± control cells; also recorded: restored the Aβ levels back to control conditions; also recorded: can be restored”. In addition, the “levels of APP-CTF” value with APP-CTF is reported as “restored to levels similar to LRP± cells; also recorded: restored to control levels; also recorded: can be restored; also recorded: restored to the level seen in LRP± cells”. Also, the “APP internalization from the cell surface” value in the experiment on APP internalization is given as “largely restored to control level; also recorded: restored to almost control levels; also recorded: can be restored; also recorded: similarly restored; also recorded: partially restored”. Besides, the “levels of APPs in medium (APPs secretion)” value in the experiment on APPs is on record as “restored the levels of APPs back to the levels seen in APP751 overexpressing cells; also recorded: restored to control levels; also recorded: restores the abnormal levels of APPs; also recorded: restored to normal levels; also recorded: can be restored”. Moreover, in the experiment with cell surface APP, the “amount of cell surface APP” value is listed as “did not alter the amount of cell surface APP”. In experiment [3], the “deficiencies in APP processing” value is recorded as “able to restore the deficiencies in APP processing in LRP−/− CHO 13-5-1 cells to control levels”.
